Reference: article PMC9365700, “Architecture and self-assembly of the jumbo bacteriophage nuclear shell” (Nature, 2022)
Several values for one entry are separate records, joined by “and”; a condition that tells them apart may be missing. Identical values can stand only once.

Molecular target: the molecule itself
Assay: cryo-EM structure; single-particle analysis of the defined assemblies from SEC with localized reconstruction (O, C4, C1); 201phi2-1 about 4 µM monomer, Goslar about 33 µM monomer

B1: Goslar chimallin (gp189), full length, recombinant (natural protein, bacteriophage Goslar, UniProt A0A482GDX1 1-631, looked up)
chain: MGLDVRNNGNDNVEIRAAETRTAQRADEALETAADFAGQPKVTHTMRTINRTLSRRISRNTGSEQVLNLRRLMEKYLEDTRFKDDFIFVAVDPNQYSVPYPTLVVMSGAKVGDHNHFFGYVLPLVAGLAPLPRREEQGPHGNILVPRTWVDNLNGTFINEVMAAMYAAIGGKSNGTARIAGLAVVTNEITAESAHLATTLLSAADNAIQTAIEIRLGDKLGLPQFNLGMMASDQPISSVQYNTSGMQDSDIVGNPVRSDITVTISNRIRQAMSDYDSQQRLVATTGYIDLTYSPQNPTFNQGPVLVNGYPVPPTVQYQPRYVMTSAYPLELDAFTPNTFVLGLIGTIATLNSGMAWAQSLISNAARGIGPHNPGALAMVLDPEVTAPLDLSTQTNEQIYKFLQQVLYPSLLISIDVPEEGEYSWLLRMIPAAEKIYTGKVEGEVREISEGYKALYRAFDDVTLGCFSKKYQYGLPLVYATGNRIPLGHYNHQDGHRHDIRDMDDLYMMNITNPDTVEAWEDSFDRTDMTMSQRVVARHEIIDRVLSGSWEQTGWAMRYDFDPLALQALIEAAADAGFTIRPENIQHLAGTAVRGNMAARARGLGNISGNIYARSDRPNVGVNNMGGAFNLF
notes: Chimallin (gp189) of E. coli jumbo bacteriophage Goslar, 631 amino acids, NCBI YP_009820873.1; Cloned in UC Berkeley Macrolab vector 2-BT (Addgene #29666) with a TEV-cleavable His6 tag; tag removed before SEC; not shown: His6, N-terminal, cleaved
  stoichiometry N: 24 protomers

B2: 201phi2-1 chimallin (gp105), full length, recombinant (natural protein, bacteriophage 201phi2-1, UniProt B3FIW8 1-631, looked up)
chain: MIRDTATNTTQTQAAPQQAPAQQFTQAPQEKPMQSTQSQPTPSYAGTGGINSQFTRSGNVQGGDARASEALTVFTRLKEQAVAQQDLADDFSILRFDRDQHQVGWSSLVIAKQISLNGQPVIAVRPLILPNNSIELPKRKTNIVNGMQTDVIESDIDVGTVFSAQYFNRLSTYVQNTLGKPGAKVVLAGPFPIPADLVLKDSELQLRNLLIKSVNACDDILALHSGERPFTIAGLKGQQGETLAAKVDIRTQPLHDTVGNPIRADIVVTTQRVRRNGQQENEFYETDVKLNQVAMFTNLERTPQAQAQTLFPNQQQVATPAPWVASVVITDVRNADGIQANTPEMYWFALSNAFRSTHGHAWARPFLPMTGVAKDMKDIGALGWMSALRNRIDTKAANFDDAQFGQLMLSQVQPNPVFQIDLNRMGETAQMDSLQLDAAGGPNAQKAAATIIRQINNLGGGGFERFFDHTTQPILERTGQVIDLGNWFDGDEKRDRRDLDNLAALNAAEGNENEFWGFYGAQLNPNLHPDLRNRQSRNYDRQYLGSTVTYTGKAERCTYNAKFIEALDRYLAEAGLQITMDNTSVLNSGQRFMGNSVIGNNMVSGQAQVHSAYAGTQGFNTQYQTGPSSFY
notes: Cloned in UC Berkeley Macrolab vector 2-BT (Addgene #29666) with a TEV-cleavable His6 tag; tag removed before SEC; also called ChmA; FL; not shown: His6, N-terminal, cleaved
  stoichiometry N: 24 protomers and 40 protomers
